How the values were obtained:
[1] = system: human colonic Caco2 (C2) cell monolayers; assay: Tight junction recovery after low-calcium disruption, ZO-1 confocal microscopy; assay type: cell-based; details: low-calcium medium (3 μM) 1 hour, assessed 2 hours after addition; AMP peptide 8 μg/ml, KGF-1 100 ng/ml, EGF 100 ng/ml
Protocol: The AMP77-97 peptide prevented decreases in TJ proteins and epithelial integrity seen after treatment of human colonic Caco2 (C2) cell monolayers with the oxidant monochloramine, which disrupts intercellular junctions (FIG. 2; C,D). These cells were exposed to low-calcium medium (3 μM) for 1 hr to disrupt TJs, and then allowed to recover in medium containing AMP77-97 peptide, epidermal growth factor (EGF) or keratinocyte growth factor (KGF-1) which are known epithelial cell mitogens that might facilitate recovery of disrupted TJs. […] At the molecular level, AMP77-97 peptide facilitates the formation of TJs by enhancing translocation of several proteins (protein kinase C-zeta, Par6, Cdc42, ECT2 and Par3) from the cytosol into TJ domains.
Localization of the tight junction protein ZO-1 was monitored by indirect immunofluorescence laser scanning confocal microscopy in confluent monolayers of C2 cells. […] To disrupt tight junctions, cells were switched to low-calcium medium (3 μM) for 1 hour. Then a growth factor at a known mitogenic concentration was added to the medium, and 2 hours later its effect on tight junction formation was assessed by confocal microscopy. Vehicle, AMP peptide (8 μg/ml), KGF-1 (100 ng/ml), and EGF (100 ng/ml) were compared.

[2] = system: stomach and intestinal epithelial cells; assay: Mitogenic and physiological effects on stomach and intestinal epithelial cells; assay type: cell-based
Excerpt: The synthesis of AMP-18 is confined to lumenal mucosal lining epithelial cells of the gastric antrum of humans and other mammals. Inside cells the protein is co-localized with mucins in secretion granules, and appears to be secreted into the mucus overlying the apical plasma membrane. […] These include mitogenesis, restitution, maturation of barrier function, and cell protection after oxidant, non-steroidal anti-inflammatory (NSAID), and DSS-mediated injury. Certain of these physiological effects can occur at concentrations that are relatively low for rhAMP-18 (<50 μM) compared to the concentrations of other gastric peptide mediators such as trefoil peptides or the α-defensin, cryptdin 3 (>100 μM). […] AMP-18 likely plays a role in physiological and pathological processes such as wound healing in the gastric mucosal epithelium in vivo as may occur in gastritis secondary to NSAID drugs, other pharmaceutical agents and alcohol, ulcer disease, and the consequences of H. pylori infection and inflammation.

B1: KGF-1: keratinocyte growth factor, known epithelial cell mitogen (protein, UniProt P21781 32-194, looked up)
Fibroblast growth factor 7: CNDMTPEQMATNVNCSSPERHTRSYDYMEGGDIRVRRLFCRTQWYLRIDKRGKVKGTQEMKNNYNIMEIRTVAVGIVAIKGVESEFYLAMNKEGKLYAKKECNEDCNFKELILENHYNTYASAKWTHNGGEMFVALNQKGIPVRGKKTKKEQKTAHFLPMAIT
formation of new tight junctions / localization of ZO-1 [1]: persistent separation of cells with TJ disruption and apparent loss of ZO-1

B2: rhAMP-18: recombinant human AMP-18 prepared in E. coli; Antrum Mucosal Protein-18 (gastrokine-1) (protein, UniProt Q9NS71 21-185, looked up)
Gastrokine-1: NYNINVNDDNNNAGSGQQSVSVNNEHNVANVDNNNGWDSWNSIWDYGNGFAATRLFQKKTCIVHKMNKEVMPSIQSLDALVKEKKLQGKGPGGPPPKGLMYSVNPNKVDDLSKFGKNIANMCRGIPTYMAEEMQEASLFFYSGTCYTTSVLWIVDISFCGDTVEN
concentration for mitogenic effect relative to growth-promoting synthetic peptides ([2]; recombinant protein prepared in E. coli): an order of magnitude lower | concentrations at which physiological effects occur ([2]; rhAMP-18): < 50 μM

Source: patent US8017576B2, “Methods and compositions to treat mucositis” (The University of Chicago, priority 2005, dated 2011)
